# Source: article PMC3810769 (Molecular Biology of the Cell, 2013)
# Read-outs that look alike come from different tables or passages of the source.
# Assays:
# [1] = biological target: T1, nebulette SH3 domain (residues 955-1014) (human (by the printed UniProt entry …, UniProt O76041 955-1014)); test: ITC
# T1 sequence (looked up): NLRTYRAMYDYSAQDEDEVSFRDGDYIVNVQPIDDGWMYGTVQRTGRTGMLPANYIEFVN
# nebulin SH3 domain [2] = biological target: T2, nebulin SH3 domain (UniProt P20929 8466-8525); test: ITC
# T2 sequence (looked up): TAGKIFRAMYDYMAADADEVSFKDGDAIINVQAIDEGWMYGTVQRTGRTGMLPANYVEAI
# nebulin SH3 domain [3] = biological target: T2, nebulin SH3 domain; test: ITC; remark: listed apart in the source
# [4] = biological target: T3, nebulette SH3 domain fused to glutathione S-transferase (human (by the printed UniProt entry …, UniProt O76041 954-1014)); test: peptide or protein array
# T3 sequence (looked up): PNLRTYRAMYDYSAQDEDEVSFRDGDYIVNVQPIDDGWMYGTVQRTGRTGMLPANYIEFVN
Binder,Kd [1] [µM],dH [1] [kcal/mol],stoichiometry N [1],Kd (nebulin SH3 domain [2]) [µM],dH (nebulin SH3 domain [2]) [kcal/mol],stoichiometry N (nebulin SH3 domain [2]),Kd (nebulin SH3 domain [3]) [µM],binding result [4]
PPPTLPKPKLPKH [synthetic 13-mer XIRP2 peptide PPPTLPKPKLPKH],12.9,-8.46,1.12,9.61,-9.43,1.02,9.3,–
GVLPPPTLPKPK [XIRP2 PR6 peptide GVLPPPTLPKPK],–,–,–,–,–,–,–,binds
